The test has as its target HA-tagged C-terminal region of CaV1.3α (aa 1509–2203) (rat) (UniProt P27732).
Chain of UniProt P27732 (P27732 1509-2203): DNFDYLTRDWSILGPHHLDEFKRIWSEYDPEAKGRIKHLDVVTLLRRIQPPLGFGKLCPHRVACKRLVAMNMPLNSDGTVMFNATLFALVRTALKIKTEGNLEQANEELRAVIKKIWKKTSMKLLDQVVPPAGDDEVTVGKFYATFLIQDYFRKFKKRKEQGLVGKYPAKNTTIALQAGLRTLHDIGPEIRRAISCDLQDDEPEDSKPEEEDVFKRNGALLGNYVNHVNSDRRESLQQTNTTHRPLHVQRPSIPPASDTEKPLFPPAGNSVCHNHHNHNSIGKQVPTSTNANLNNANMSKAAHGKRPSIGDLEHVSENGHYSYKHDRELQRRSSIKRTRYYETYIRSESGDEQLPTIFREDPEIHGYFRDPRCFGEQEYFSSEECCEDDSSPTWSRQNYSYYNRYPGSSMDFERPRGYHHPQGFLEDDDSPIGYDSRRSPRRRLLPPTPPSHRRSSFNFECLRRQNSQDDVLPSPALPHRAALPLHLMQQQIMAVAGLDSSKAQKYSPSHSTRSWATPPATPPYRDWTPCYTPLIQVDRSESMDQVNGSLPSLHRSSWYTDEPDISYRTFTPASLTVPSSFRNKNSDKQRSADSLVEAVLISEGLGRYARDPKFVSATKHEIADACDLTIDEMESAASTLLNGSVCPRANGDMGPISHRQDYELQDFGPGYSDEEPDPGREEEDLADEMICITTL

As for “full-length untagged RIM2α (from UniProt Q9EQZ7-1 1-1530) (natural protein)”, the shift of the voltage-dependence of CaV1.3 channel activation in HEK293/SK3-1 cells co-expressing RIM2α turned out to be 3 mV.
